From patent publication WO2009150539A2 (dated 2009)
“And” between values parts separate entries of the source, which are not always exact repeats. Equal values may be shown once.

Experiments:
[1] = target: T1, AahII toxin of Androctonus australis hector (Androctonus australis hector, UniProt P01484 20-83); experiment: SPR (BIAcore), AahII immobilised on CM5 chip, Nb in mobile phase
T1 construct: mature; also called Aahll
T1 sequence: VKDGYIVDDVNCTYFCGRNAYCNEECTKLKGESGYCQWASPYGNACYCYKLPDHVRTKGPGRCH

[2] = target: T1, AahII toxin of Androctonus australis …; experiment: cell-based or functional assay
[3] = target: T1, AahII toxin of Androctonus australis …; experiment: phage ELISA on coated AahII, Nb displayed on phage

B1: NbAahII10 (VHH)
VHH: QVQLVESGGGSVQAGGSLKLSCAASGYFYSSNYCLGWFRQAPGKEREGVAQINIAPGRIYYADSVKGRFTISRDNAKNTVYLQMDSLKPEDTAIYYCASTAGNMYYGLRGPADFDYWGQGTQVTVSS
notes: also called NbAahIIlO; NbAahII lO
In the case of B1, the Kd [1] is reported as 0.49 nM, the koff [1] is reported as 0.000569 s⁻¹ and the kon [1] is reported as 1.14e+06 M⁻¹ s⁻¹. For the same binder, the “NC = (LD50 with Nb - LD50 without Nb)/Nb; i.c.v.; AahII:Nb 1:4” value [2] was 37000 LD50/mg and 555 LD50/nmol, the “Survivors/Injected mice; i.c.v.; AahII:Nb 1:4; 2 LD50/mouse; 48 ng Nb/mouse” value [2] was 4 survivors of 4 mice and the “Survivors/Injected mice; i.c.v.; AahII:Nb 1:4; 3 LD50/mouse; 72 ng Nb/mouse” value [2] was 4 survivors of 4 mice. For the same binder, the “neutralizing capacity, i.c.v., toxin/Nb ratio 1/4” value [2] was about 37500 LD50/mg.

B2: NbAahII38 (VHH)
VHH: DVQLVESGGGLVQPGGSLRLSCAASGFTFSNYVMSWVRQAPGKGLEWVSGINHGGGIQDYADSVKGRFTISRDNAKNTLYLQLNSLKIEDTAMYYCVRASHYRDYGPTIYSWGQGTQVTVSS
notes: also called cluster H
In the case of B2, the Kd [1] is reported as 76 nM, the koff [1] is reported as 0.000781 s⁻¹ and the kon [1] is reported as 10200 M⁻¹ s⁻¹. For the same binder, the “Survivors/Injected mice; i.c.v.; AahII:Nb 1:2; 2 LD50/mouse; 24 ng Nb/mouse” value [2] was 1 survivors of 4 mice and the “Survivors/Injected mice; i.c.v.; AahII:Nb 1:2; 3 LD50/mouse; 36 ng Nb/mouse” value [2] was 0 survivors of 4 mice.

B3: NbAahII16 (VHH)
VHH: HVQLVESGGGSVQAGGSLRLSCAASGYTFSNYRMGWFRRAPGKECELVSTILTDGSTNYADSVKGRFTISRDNAKNTVYLLMNNLKAEDTAVYYCAAGNSRKGYLRRCGGTDFGYWGQGTQVTVSS
notes: also called NbAahlllό
B3: binds [3].

B4: NbAahII3 (VHH)
VHH: QVQLVESGGGSVQAGGSLRLACAASGVTLSDYCMGWFRQAPGKEREGVAAIKDRGSISYYADSVKGRFTISKDNAKNTMYLQMNRLNSEDTAMYYCAVTRNSCLGLAKFRPPSYNYWGQGTQVTVSS
notes: also called NbAahID; NbAahIB
B4: binds [3].

B5: NbAahII11 (VHH)
VHH: QVQLQESGGGSVQAGGSLRLSCAASGLTLNNYCIGWFRQAPGKEREGVAALKSGGSFTYYADSVKGRFTISRDNAKNTMYLQMSSLNSEDTAMYYCAVTRNSCLGLAKFRPSSYNYWGQGTQVTVSS
notes: also called NbAaWI 1 1; NbAahIIl l
B5: binds [3].

B6: NbAahII6 (VHH)
VHH: QVQLQESGGGSVQAGGSLRLSCAASGATLNNYCLGWFRQAPGKEREGVAAFKSGGSFTYYADSVKGRFTISKDNAKNTMYLQMNSLNSEDTAMYYCAVTRHSCLGLAKFRPSSYNYWGQGTQVTVSS
notes: also called NbAahllό
B6: binds [3].

B7: NbAahII32 (VHH)
VHH: QVQLQESGGGSVQAGGSLRLSCAASGLTLNNYCIGWFRQAPGKEREGVAALKSGGSFTYYADSVKGRFTISRDNAKNTMYLQMSSLNSEDTAMYYCAVTRNSCLGLAKFRPSSYNYWGQGTQVTVSS
B7: binds [3].

B8: NbAahII45 (VHH)
VHH: QVQLQESGGGSVQAGGSLKLSCAASGYFYSSNYYMAWFRQAPGKEREGVAHINRSGRITLYADSVKGRFTMSRDNAKNTVYLQMNSLKPEDTAIYYCAAGVRTHMPPLASYGFDYWGQGTQVTVSS
B8: binds [3].

B9: NbAahII48 (VHH)
VHH: QVQLVESGGGSVQAGGSLRLSCAASGYTCTKFNMGWYRQAPGKEREFVATIRRDSTIYYADSVKGRFTISQDNAKNMVYLQMTSLKPEDSAMYYCSTRCVTSSVPYWGQGTQVTVSS
B9: binds [3].
